How the values were obtained:
Settings in all cases: protein: recombinant; tags: none after Ulp1 cleavage of His-Smt3; label: 32P (T4 PNK)
[1] = target: T1, hTERB1-MYB triple mutant (Homo sapiens, UniProt Q8NA31 666-719, A712K;H713D;H716R); experiment: EMSA; 2-8 uM protein, 150 nM probe; 50 mM Tris-HCl pH 8.0, 6.5% glycerol, 20 mM NaCl, 5 mM DTT, 150 nM probe, 10 ul, 30 min on ice; 4-20% TBE native gel
T1 sequence: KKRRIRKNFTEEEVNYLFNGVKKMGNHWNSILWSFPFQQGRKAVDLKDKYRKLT

[2] = target: T2, hTERB1-MYB H716R (Homo sapiens, UniProt Q8NA31 666-719, H716R); experiment: EMSA; 150 nM probe; 50 mM Tris-HCl pH 8.0, 6.5% glycerol, 20 mM NaCl, 5 mM DTT, 150 nM probe, 10 ul, 30 min on ice; 4-20% TBE native gel
T2 sequence: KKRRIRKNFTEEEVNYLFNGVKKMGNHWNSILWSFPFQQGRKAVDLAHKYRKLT

[3] = target: T3, hTERB1-MYB A712K (Homo sapiens, UniProt Q8NA31 666-719, A712K); experiment: as above
T3 sequence: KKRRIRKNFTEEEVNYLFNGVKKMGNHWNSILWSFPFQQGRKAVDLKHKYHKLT

[4] = target: T4, hTERB1-MYB H713D (Homo sapiens, UniProt Q8NA31 666-719, H713D); experiment: as above
T4 sequence: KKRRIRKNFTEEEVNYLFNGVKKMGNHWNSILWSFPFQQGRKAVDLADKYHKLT

Measured: binding result

B1: dsDNA_telo_8-mer (TTAGGG)8 (dsDNA)
DNA 1: TTAGGGTTAGGGTTAGGGTTAGGGTTAGGGTTAGGGTTAGGGTTAGGG
DNA 2: CCCTAACCCTAACCCTAACCCTAACCCTAACCCTAACCCTAACCCTAA
no binding: [1] | [2] | [3] | [4]

— article PMC8867601, “The TERB1 MYB domain suppresses telomere erosion in meiotic prophase I”
